This is an account of results in patent US20220315908A1, “NOVEL GARDNERELLA ENDOLYSINS AND USES THEREOF” (priority 2019, published 2022).

To fix the notation:
B1: H12B12: natural Gardnerella prophage endolysin from strain 3549624 (protein)
chain: MSKKGIDVSVWQGDIDFNAVKASGVEFVIIRAGYGIGHKDKWFEENYRKAKTAGLDVGSYWYSYASSAGEVALEAQSCVNILSGKSFEYPVYFDLEEKSQLNRGRDFCDSLITSFCNKLEACGYYAGFYTSLSVANNLVSSHVRDRYALWIAQWNTHCSYQGSYGLWQYSSSGSVNGIAGRVDMDYAYVDYPSVIKNAGLNGYQNGGSYTAPQTSSIDEVAREVINGDWGNGIERKNRLTSAGYDYTSVQNKVNELLGVKAYRKSVDELAREVIRGTWGNGKTRKQRLTQAGYDYNAVQKRVNELL
modifications: EL12_strain_3549624_non-prophage
B2: H10B10: natural Gardnerella prophage endolysin from strain G30-4 (protein)
chain: MSKRGIDVSVWQGDIDFNAVKASGVEFVIIRAGYGIGHKDKWFEENYRKAKTVGLDVGAYWYSYASSAGEASEEAQSCVNILSGKSFEYPVYFDLEEKSQLNRGRDFCDSLITSFCNKLEACGYYAGFYTSLSVANNLVSSHVRDRYALWIAQWNTHCSYQGSYGLWQYSSSGSVNGIAGRVDMDYAYVDYPSVIKNAGLNGYKNGGSYTAPQISSIDEVAREVINGDWGNGNERKQRLTSAGYDYASVQNKVNELLGVKAYRKSVDELAREVIRGTWGNGSTRKQRLTQAGYDYNAVQKRVNELL
modifications: EL10_strain_G30-4
B3: H11B11: natural Gardnerella prophage endolysin from strain JCP8017A (protein)
chain: MSKRGIDVSVWQGDIDFNAVKASGVEFVIIRAGYGIGHKDKWFEQNYRKAKTTGLDVGAYWYSYASSAGEAAEEAQSCVNILSGKSFEYPVYFDLEEKSQLNRGRDFCDSLITSFCNKLETYGYYAGFYTSLSVANNLVSSHVRDRYALWIAQWNTHCDYQGSYGLWQYSSSGSVDGIAGRVDMDYTYVDYPSVIKKAGLNGYKNGGSYTAPQTSSIDEVAREVINGDWGNGNERKNRLTSAGYDYTSVQNKVNELLGVKAYRKSVDELAREVIRGTWGNGSTRKQRLTQAGYDYDAVQKRVNELL
modifications: EL11_strain_JCP8017A
notes: natural Gardnerella prophage endolysin from strain JCP8017A

The first test concerns Gardnerella cells. Briefly: Turbidity reduction (OD) assay of Gardnerella suspensions. The test is classed as cell-based. As to conditions: Gv_10 pH 6.0, Gv_17 pH 7.0, Gv_23 pH 7.4; aerobic, room temperature; vs buffer. On the procedure: FIGS. 4A to 4C show three enzymatic activity assays where the enzymatic activity of natural Gardnerella prophage endolysins of the present disclosure is measured by detecting the change in turbidity of a suspension of Gardnerella cells. In FIG. 4A, the enzymatic activity of the endolysins is measured by detecting the change in turbidity of a suspension of the G. leopoldii strain Gv_10 at pH 6.0. In FIG. 4B, the enzymatic activity of the endolysins is measured by detecting the change in turbidity of a suspension of the G. piotii strain Gv_17 at pH 7.0. In FIG. 4C, the enzymatic activity of the endolysins is measured by detecting the change in turbidity of a suspension of the G. swidsinskii strain Gv_23 at pH 7.4. Treatment was conducted in a medium adjusted to the appropriate pH in a photometric cuvette against buffer. Then, the change in turbidity was assessed by measuring the optical density (OD) at 600 nm. As a result, the drop in turbidity was more pronounced for the endolysin treated groups than for the buffer, indicating enzymatic activity.
To test the activity of the purified endolysins, the turbidity change of Gardnerella suspensions (see Table 2) was measured at 610-620 nm using essentially the method described in Reference Example 2, where 95 ul of bacterial suspension in Hardy Broth at the indicated pH was mixed with 5 ul of endolysin solution in a photometric cuvette under aerobic conditions at room temperature. In turbidity reduction assays, a decrease in light scattering (i.e., turbidity reduction) of a suspension of live cells can be used in a spectrophotometer to assay the activity of peptidoglycan hydrolases. The reduction in optical density over time (minutes) can be used to calculate a rate of hydrolysis. Results are compared to a “no-enzyme added, buffer only” control preparation treated identically for the same period of time. In this manner, a specific activity of the enzyme preparation can be reported as ΔOD/time/ul lysin protein. […] As explained above, due to the low content of peptidoglycan in the cell wall, the fact that a peptidoglycan-degrading enzyme such as the identified endolysins could efficiently lyse the bacterial cell walls was an unexpected and surprising discovery.
Gardnerella cells were recovered from cryo stock by plating on Chocolate Agar plates (Beckton Dickinson) and incubating for 48 h at 37° C. under anaerobic conditions. For Lactobacilli, BD Schaedler/5% sheep blood agar plates were used instead. Colonies were scraped from the plate, resuspended in Hardy Broth or NYC-III-HS-5.0 at the pH as indicated, and the suspension adjusted to OD (610 or 620 nm as indicated) 0.1. It has to be noted that two Tecan Microplate readers, having respectively a 610 nm or 620 nm filter, have been used interchangeably in the experiments. Although it doesn't make any difference for the experiments, the exact wavelength used is specified in each example. If not stated otherwise, 90 μl cell suspension was mixed with 10 μl endolysin solution, for the different species/endolysin combinations, in 384-well plates. OD(610-620 nm as indicated) was measured at the beginning of the reaction and at the end, either as two measurement points or as a continuous kinetic in a Tecan F200 Microplate reader. The reactions were incubated for 5 hours (or otherwise the time indicated) at 37° C. under anaerobic, micro-aerophilic or aerobic conditions as indicated. Anaerobic conditions intend that oxygen was fully depleted from the container in which the bacteria are incubated (Sigma-Aldrich anaerobic jar or sealable lunch box) with an anaerobic sachet, and the lack of oxygen was confirmed with an anaerobic indicator inside the container. Where micro-aerophilic conditions are indicated, the candle-in-a-jar method was used (tea candle lit in an appropriate sealable container, which reduces oxygen levels until the flame dies out). […]
Turning to B1, the “enzymatic activity by drop in turbidity (capacity to lyse Gardnerella cell walls)” value is listed as “active”.
Turning to B2, the “enzymatic activity by drop in turbidity (capacity to lyse Gardnerella cell walls)” value is listed as “active”.
Same read-out and setting: the entry for B3 is “active”.

A further test deals with G. swidsinskii strain Gv_23. Briefly: Quantitative reduction in viable CFU assay in bacterial suspension. As to conditions: 5 hours, pH 5.0, anaerobic, 10 ul endolysin (0.2 mg/ml where possible) + 90 ul 5e7 CFU/ml, average of triplicate. It counts as cell-based, Gardnerella swidsinskii. On the procedure: The lysis activity on the four main species of Gardnerella of 91 constructs (natural and domain-swapped endolysins) was quantitatively assessed using the method described in Reference Example 2. Briefly, 90 ul 5e7 CFU/ml of the indicated strain were incubated for 5 hours at pH 5.0 under anaerobic conditions with 10 ul endolysin (concentration adjusted to 0.2 mg/ml where possible, see Table 4).
The results are shown in FIGS. 8A to 8D together with Tables 5A to 5C. In FIGS. 8A to 8D, the logarithmic Y axis depicts the count of surviving cells. The dotted line indicates the limit of detection (LOD) given by plating of 2 ul of the reaction mix (500 CFU/ml). Each combination of the natural 10 H-domains and the natural 9 B-regions was assessed, including the natural endolysins (H1B1, H2B2, H3B3, etc.), plus H6B6. […] The activity of each construct was measured on each of the 4 main Gardnerella species G. vaginalis sensu stricto, G. leopoldii, G. piotii, and G. swidsinkii. All conditions have been measured in triplicate. The survival after 5 hours incubation at pH 5.0 under anaerobic conditions with endolysins vs. buffer was measured by quantitative plating. The values indicate the log 10 of the ratio of surviving CFU for treated vs. untreated cells. The average of the triplicate measurements is used. In tables 5A and 5B, high negative log 10 values, e.g. −6.7, −5.5, −4.8 etc. are associated with high enzymatic activity, while log 10 values closer to zero or even positive log 10 values are associated with low or no enzymatic activity. […] Inversely, a reduction value of −3.7 means a 10^3.7-fold (=5012-fold) reduction of viable CFU in treated sample vs. untreated control.
Gardnerella cells were recovered from cryo stock by plating on Chocolate Agar plates (Beckton Dickinson) and incubating for 48 h at 37° C. under anaerobic conditions. For Lactobacilli, BD Schaedler/5% sheep blood agar plates were used instead. Colonies were scraped from the plate, resuspended in Hardy Broth or NYC-III-HS-5.0 at the pH as indicated, and the suspension adjusted to OD (610 or 620 nm as indicated) 0.1. It has to be noted that two Tecan Microplate readers, having respectively a 610 nm or 620 nm filter, have been used interchangeably in the experiments. Although it doesn't make any difference for the experiments, the exact wavelength used is specified in each example. If not stated otherwise, 90 μl cell suspension was mixed with 10 μl endolysin solution, for the different species/endolysin combinations, in 384-well plates. OD(610-620 nm as indicated) was measured at the beginning of the reaction and at the end, either as two measurement points or as a continuous kinetic in a Tecan F200 Microplate reader. The reactions were incubated for 5 hours (or otherwise the time indicated) at 37° C. under anaerobic, micro-aerophilic or aerobic conditions as indicated. Anaerobic conditions intend that oxygen was fully depleted from the container in which the bacteria are incubated (Sigma-Aldrich anaerobic jar or sealable lunch box) with an anaerobic sachet, and the lack of oxygen was confirmed with an anaerobic indicator inside the container. Where micro-aerophilic conditions are indicated, the candle-in-a-jar method was used (tea candle lit in an appropriate sealable container, which reduces oxygen levels until the flame dies out). Then each well was diluted in 5 steps (10^−1 to 10^−5) using 96-U-well bottom plates, and 2 μl of each dilution of each reaction mix are plated on BD Chocolate agar plates or BD Schaedler/5% sheep blood agar plates for Gardnerella and Lactobacilli, respectively, for detecting and quantifying surviving CFU. Detection plates were incubated at 37° C. for 48 hours under anaerobic conditions.
With B1, the “log 10 of the ratio of surviving CFU for treated vs. untreated cells” value (from here on “log 10 of the ratio of surviving CFU”) is −1.9 log 10.
For the molecule B2, the “log 10 of the ratio of surviving CFU” value is on record as −5.5 log 10.
As to B3, the “log 10 of the ratio of surviving CFU” value is listed as −3.5 log 10.
